Laboratory results as given in patent US9371519B2, “Complex type sugar chain hydrolase” (National Institute of Advanced Industrial Science and …, priority 2011, dated 2016).

B1: Endo-Zr: endo-β-N-acetylglucosaminidase from Zygosaccharomyces rouxii ATCC2623, amino acid sequence SEQ ID NO. 13, 639 amino acids (protein, listed as Zygosaccharomyces rouxii)
chain: MKRINQVPGKPEITSLYFDDLNSLQRWFDKGFMDSRDLSNVPKERYSNYVKFEKDSIITIPNLSARKTEIIVCHDFKGGYQSGHDLYPNGQYGTESCKPYSLRYPEIVDKFVYFSHHCVTIPPSPWTNYLHRHSIPVLGTLILEHYPHNGELFKKNAKGEFLYVKYLVELCRKFHFEGWLINFETVFGNNSKQVIPFLRELTARVECEIYGGSVIWYDAFTTFSNKPSHQNEVNLFNYDAYENSSQFMTNYMWDSHNVGNSLRNVGALGMHSHVALGVDVWGRNMQVCRGGFESNIAIYYAKRFGTNAVIFAPGWTYENFGEDQFYEKDDIFWGNIKSTLQLDSYSDSQLSSWFVSESKKTRYFTTFFSTGSGNFFNLNGRRISNDNWVQLGLSTPFPVNSHSYLSFKDSFVGGSCLALPLSPMENGKLHLFRFEQFIKDQQKTSDSEIRVKLSYKSLGALPPVKLVIKCFVIRRGKRSKTILKVDDVSLVLPLSHSACQTAQGSTKWAVVEQIVPLPSLESRFLEEYYVEDAHLEWTMDNNHDEWLMVPERTEDLDCKLLIGSLCLEIGPHEDNNKRQIVRNGPQLSWQDNESSFMWLKLQDGKLDSVLFTPTTKVNGKQPTILECGRNGTLKFVVKK
B2: Endo-Pa: endo-β-N-acetylglucosaminidase from Pichia anomala ATCC36904, amino acid sequence SEQ ID NO. 9, 656 amino acids (protein, listed as Pichia anomala)
chain: MQHDHAAIKFEEDSISSQRFSSLDEVEKWYNTKNRSPLDDLRIPRESLSHYNRFRDNNDEIKVLVCHDFKGNYQEGEDENPLGYFPHSSGQHYFIQFPSLVDLFIFFSHYKIAVPPVSWINSLHRQGIPVLGTLIFEGTDVSESDKLLEKNENGDFKYLEILCELVRHYGFDGWLVNMESHFSSVAKAQDLLLFDEALRSTLHLKVPGSKLIWYDSLITQKNRVFYQNAVNEWNYDHFSTSDLFFTNYWWNEEDLKRNILNIGLQGVKQKLFVGVDIWGRGSRIGNGGFESGLAINYLKRYSTNVALFAPAWTYENFEEDQFLIKDRKFWIGDQTSDETGGSVATYVSHYTTPVYVKDQNVKFYTNFSVGEGTKYRVFAHTVFKNNWVNGNLQLPTPIIDNEKRIDIYYKESFNGGSSLKVTQRNSILNDGKSNILQLFSFKNDIHSNNLNVSVSFKYLSEIPLNSTFQLEIKFYIERRYRSVTRVRDGTFKLPLAFSNKNWKYIETSFALPRLQIREHFVLEGLQIRWVDNVDELSSSIGTSGDFTESWIIVPQNSDPNAVYELLIGDLLVEGIKTANGNIDAVTKLSRKITLDSRSILATWKDDTEVLYWIIYVNAKFLGIAHKSLWRVQRGDKLRVDVFTRSGKLVKGEDIFI
B3: Endo-Om: endo-β-N-acetylglucosaminidase from methylotrophic yeast Ogataea minuta IFO10746, amino acid sequence SEQ ID NO. 1, 772 amino acids (protein, listed as Ogataea minuta)
chain: MAQSQLLGGAVRPVFFDKLEELRRWHTQSANLSRESELDSLNVATEPFSSYERAQTGSGSRSSEPVPGDKEDPPIKLMVCHDFKGGYQDYEDAQPLGYFPHPTGSRYFLQYPQLIDQFVYFSHHRVTVPPVNWINFCHRNGIKCFGTVIFEGNASKDFEELDRLVSRDEKGDFVFVDALIKLAAHYGFDGYLLNIETTFSNTKIAADLEPFAEQLKSGLHCLDSKNELIWYDSYVFPANKVSYTNGVTESNYNFFSLSDAFFSNYWWNIKNLQENIKNVGVLGVQKKIYVGYDVWGRGTLVGKGGFDSSLACKMIAKFKSNVALFAPAWTYESLGPKDFNQNDARFWIGLFENESSISSTVPPHSSAVYKINESSFIFYTNFSSGEGNRFFSKGSEVYRKNWVNGSLQFDLPIDLHRKDKNGLQWALDKSDAFHGGACLEIKYSEIKDENGYQIFNNQMVSDFTLFNFTKECHFPTVNVKVTYKLNHKTKSTFKIKIKYIIERRFRSVQTVRTGYLTIPLLSTSGKWFTVEESFQINLQTSHEYIVLESAHVTYDEDRSADSFFRSYIVEDSAITSVIDNEEYEKLINSEIYNDDEDEDWILVPSDVSISSSESQSNDSKTQYLGRKLFGNKSTPKTRTLEGTAPLLRIGEFAIISANNYPSSNFLAVTSVKSIESSRLEGDSLVLLNWQVGEGHQKGVCYYIIYVNGAVVGLSVAPKFIYQDTELASENSASARSNYKKSGLGSSSDRKSKVRVDSVDKLGNVFTGSEVWV
B4: Endo-Cp: endo-β-N-acetylglucosaminidase from Candida parapolymorpha DL-1 ATCC26012, amino acid sequence SEQ ID NO. 5, 745 amino acids (protein, listed as Candida parapolymorpha)
chain: MPRNTAKHSSLPQTNLPLSSLESSFFDSLDELANWERRIHEKSFELDELNKPTEKLAHYTRARQQSTSEDVKLLVCHDLKGGYQVNEDEDPLGYFPHPDGQHYFLQYPQLVDKFVYFSHHRVSIPPVSWINVCHRNAIKCLGTVIFEGNTYRDFEEADKLLTKQDGEYVFVRCLVALVEYFQFDGYLFNIETRFSNTRIASLLEPFLEQLRAELHVRNPSTELIWYDSYIYPENRVLYKNGVTEANYNFFSCCDSFFTNYWWNVKHLQDNIKNVGVLGSRLKVYAGYDVWGRGTMIGKGGYDSALACQMIKKYRSNVALFAPAWTYEYLARKDFTQNDTRFWIGLFDGESSMATTFKPYSSPLYKINDSNFVFYTNFGSGEGCAFYECGEKVYRDNWVNGSLQMEIPYAIHTRNKNGIQWTLSKEDSFHGGSCVEIKYNEVVDDKGYQVFNNQTINSFSLFSFVQDCSFPTVNVKLTYKLNHKTKSFFKLKIGYYIERRYRTVQKVRSGCLVVPLLSTNDQWFTIEEPFHVSLQNSHEFIVLDSATIFYEETEDPFMRAHVVEDQSTSSVIDNEEYEKLMNSEIYFDDEDEDWILVPSDISMESTDNGGRENHTWKVISNQIRKKHPKSHPSTSPVLKLGELAIINANDYPSDSFFKLMPVNSIDVRRWEGKILLIWKTNQDSVLYHLIFVDDVFQGISLVSKFVFEDQAVDEKSFKTKSGGSTKVRIDTVNRLGILVKGTDM

Assay: Hydrolysis activity for various PA-labeled sugar chains (HPLC peak area ratio, relative to M8A)
Assay type: biochemical
Settings: 1 μM substrate, pH 5.3, 30° C.
Procedure: (§1) Using the Endo-Om partially purified enzyme solution of the present invention, hydrolysis activity for various PA-labeled commercially available sugar chains (TaKaRa-Bio Inc.) were measured, and the results are shown in the following (Table 1) together with the measurements in a literature on Endo-M (Non Patent Literature 6). The hydrolysis activity at that time was calculated from the peak area ratio between the PA-labeled sugar chain and its hydrolysate as substrates in HPLC, and the relative activity for the various sugar chains was calculated, with the hydrolysis activity for the sugar chain with an M8A structure set at 100%.
as §1, with “Endo-Cp” for “Endo-Om”, “2)” for “1)”
as §1, with “Endo-Pa” for “Endo-Om”, “3)” for “1)”
as §1, with “Endo-Zr” for “Endo-Om”, “4)” for “1)”
Comparison of hydrolysis activity for PA-labeled sugar chains having various structures was carried out as follows. A reaction solution containing a sodium acetate buffer at final concentration of 100 mM (pH 5.3), 0.5 M of NaCl, 1 μM of any of various PA-labeled sugar chains (TaKaRa-Bio Inc.), and an Endo-Om purified enzyme solution (total volume: 10 μl) was incubated at 30° C. for 3 to 12 hours, and heated at 95° C. for 5 minutes thereby stopping the enzyme reaction. The reaction solution was subjected to HPLC, and enzymatic activity was calculated from the peak area ratio between the PA-labeled sugar chain as the substrate and its hydrolysate. The column used herein was Cosmosil 5C18-ARII (2.0.150 mm, Nacalai Tesque, Inc.), the solvents were a 0.1 M ammonium acetate buffer (pH 4.0: solvent A), a 0.1 M ammonium acetate buffer (pH 4.0), and 0.5% 1-butanol (solvent B). Linear gradient elution was carried out using the solvent B: 5%-50% at a flow rate of 0.5 ml/min over a period of 24 minutes, and detection was carried out using a fluorescence detector (excitation wavelength 320 nm, and fluorescence wavelength 400 nm). The enzymatic activity was calculated with the activity hydrolyzing 1 μmol of the PA-labeled sugar chain in 1 minute under the above-described reaction conditions as 1 Unit, and the relative activity for various sugar chains were calculated with the hydrolysis activity for the sugar chain having an M8A structure as 100%. […]

[1] = substrate drawing 1/drawing 14/drawing 27/drawing 40 (M3B structure), M8A = 100%
[2] = substrate drawing 2/drawing 15/drawing 28/drawing 41 (M5A structure per text), M8A = 100%
[3] = substrate drawing 4/drawing 17/drawing 30/drawing 43 (high-mannose type M8A-PA sugar chain, set at 100%)
[4] = substrate drawing 5/drawing 18/drawing 31/drawing 44 (M9A structure per text), M8A = 100%
[5] = substrate drawing 7/drawing 20/drawing 33/drawing 46, M8A = 100%
[6] = substrate drawing 8/drawing 21/drawing 34/drawing 47, M8A = 100%
[7] = substrate drawing 9/drawing 22/drawing 35/drawing 48, M8A = 100%
[8] = substrate drawing 6/drawing 19/drawing 32/drawing 45, M8A = 100%

Molecule	Relative activity (hydrolysis activity for PA-labeled sugar chain) [1]	Relative activity (hydrolysis activity for PA-labeled sugar chain) [2]	Relative activity (hydrolysis activity for PA-labeled sugar chain) [3]	Relative activity (hydrolysis activity for PA-labeled sugar chain) [4]	Relative activity (hydrolysis activity for PA-labeled sugar chain) [5]	Relative activity (hydrolysis activity for PA-labeled sugar chain) [6]	Relative activity (hydrolysis activity for PA-labeled sugar chain) [7]	Relative activity (hydrolysis activity for PA-labeled sugar chain) [8]
B1	85.7%	39.8%	100%	33.4%	13.2%	17.3%	30.0%	
B2	152%	94.3%	100%	115%	35.4%	36.3%	40.5%	4.0%
B3	55.9%	13.7%	100%	81.3%	5.9%	1.6%	4.6%	0.8%
B4	37.3%	15.1%	100%	21.6%	4.7%	1.1%	3.1%	0.4%
